Laboratory results taken from US20230151095A1 (published 2023).

T1: XENP23311 (His-tagged NKG2D-Fc) (human, UniProt P26718 78-216)
T1 chain: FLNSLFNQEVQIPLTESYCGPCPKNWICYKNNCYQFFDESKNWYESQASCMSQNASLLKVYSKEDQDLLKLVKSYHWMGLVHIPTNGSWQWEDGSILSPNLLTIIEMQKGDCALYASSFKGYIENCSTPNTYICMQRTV


Target: T1, XENP23311 (His-tagged NKG2D-Fc)
Assay: Octet

| Binder | Kd |
| --- | --- |
| XENP40888 (LB_1002, 2+1 VHVL) (antibody) chain 1: EVQLLESGGGLVQPGGSLRLSCAVSGFSLSSYGVIWVRQAPGKGLEYVSWVSSGGSTNYASSVKGRFTISRDTSKNTVYLQMNSLRAEDTAVYFCARGATNSGTDIWGPGTLVTVSSASTKGPSVFPLAPSSKSTSGGTAALGCLVKDYFPEPVTVSWNSGALTSGVHTFPAVLQSSGLYSLSSVVTVPSSSLGTQTYICNVNHKPSDTKVDKKVEPKSCDKTHTCPPCPAPELLGGPSVFLFPPKPKDTLMISRTPEVTCVVVDVSHEDPEVKFNWYVDGVEVHNAKTKPREEEYNSTYRVVSVLTVLHQDWLNGKEYKCKVSNKALPAPIEKTISKAKGQPREPQVYTLPPSREEMTKNQVSLTCDVSGFYPSDIAVEWESDGQPENNYKTTPPVLDSDGSFFLYSKLTVDKSRWEQGDVFSCSVMHEALHNHYTQKSLSLSPGK chain 2: EVQLLESGGGLVQPGGSLRLSCAVSGFSLSSYGVIWVRQAPGKGLEYVSWVSSGGSTNYASSVKGRFTISRDTSKNTVYLQMNSLRAEDTAVYFCARGATNSGTDIWGPGTLVTVSSASTKGPSVFPLAPSSKSTSGGTAALGCLVKDYFPEPVTVSWNSGALTSGVHTFPAVLQSSGLYSLSSVVTVPSSSLGTQTYICNVNHKPSNTKVDKKVEPKSCGGGGSGGGGSEVQLVESGGGLVKPGGSLRLSCAASGFTFSSYSMNWVRQAPGKGLEWVSSISSSSSYIYYADSVKGRFTISRDNAKNSLYLQMNSLRAEDTAVYYCARGAPMGAAAGWFDPWGQGTLVTVSSGKPGSGKPGSGKPGSGKPGSDIQMTQSPSSVSASVGDRVTITCRASQGISSWLAWYQQKPGKAPKLLIYAASSLQSGVPSRFSGSGSGTDFTLTISSLQPEDFATYYCQQGVSFPRTFGGGTKVEIKGGGGSGGGGSKTHTCPPCPAPELLGGPSVFLFPPKPKDTLMISRTPEVTCVVVDVSHEDPEVKFNWYVDGVEVHNAKTKPREEQYNSTYRVVSVLTVLHQDWLNGKEYKCKVSNKALPAPIEKTISKAKGQPREPQVYTLPPSREQMTKNQVKLTCLVKGFYPSDIAVEWESNGQPENNYKTTPPVLDSDGSFFLYSKLTVDKSRWQQGNVFSCSVMHEALHNHYTQKSLSLSPGK chain 3: DIVMTQSPSSLSASVGDRVTITCRASQSINSWLSWYQQKPGKPPKLLIYGASNLASGVPSRFKGSGSGTDFTLTISSLQPEDFATYYCQNNYGIIAAGATFGGGTKVEIKRTVAAPSVFIFPPSDEQLKSGTASVVCLLNNFYPREAKVQWKVDNALQSGNSQESVTEQDSKDSTYSLSSTLTLSKADYEKHKVYACEVTHQGLSSPVTKSFNRGEC | 158 nM |
| XENP41343 (1D2B4, mAb-scFv VLVH) (antibody) chain 1: EVQLLESGGGLVQPGGSLRLSCAVSGFSLSSYGVIWVRQAPGKGLEYVSWVSSGGSTNYASSVKGRFTISRDTSKNTVYLQMNSLRAEDTAVYFCARGATNSGTDIWGPGTLVTVSSASTKGPSVFPLAPSSKSTSGGTAALGCLVKDYFPEPVTVSWNSGALTSGVHTFPAVLQSSGLYSLSSVVTVPSSSLGTQTYICNVNHKPSDTKVDKKVEPKSCDKTHTCPPCPAPELLGGPSVFLFPPKPKDTLMISRTPEVTCVVVDVSHEDPEVKFNWYVDGVEVHNAKTKPREEEYNSTYRVVSVLTVLHQDWLNGKEYKCKVSNKALPAPIEKTISKAKGQPREPQVYTLPPSREEMTKNQVSLTCDVSGFYPSDIAVEWESDGQPENNYKTTPPVLDSDGSFFLYSKLTVDKSRWEQGDVFSCSVMHEALHNHYTQKSLSLSPGK chain 2: not shown chain 3: DIVMTQSPSSLSASVGDRVTITCRASQSINSWLSWYQQKPGKPPKLLIYGASNLASGVPSRFKGSGSGTDFTLTISSLQPEDFATYYCQNNYGIIAAGATFGGGTKVEIKRTVAAPSVFIFPPSDEQLKSGTASVVCLLNNFYPREAKVQWKVDNALQSGNSQESVTEQDSKDSTYSLSSTLTLSKADYEKHKVYACEVTHQGLSSPVTKSFNRGEC | 115 nM |
